Values quoted from earlier work in publication PMC10769511.

Molecular target: histone H3K4me3 peptide (Homo sapiens) (UniProt P68431)

Which Kd does the source give for PHF2 PHD-Jumonji (from UniProt O75151) here?
Its Kd is 160 nM.
